Consider one compound from PMC7515959, “Imaging angiogenesis in patients with head and neck squamous cell carcinomas by [^68Ga]Ga-DOTA-E-[c(RGDfK)]2 PET/CT” (European Journal of Nuclear Medicine and Molecular Imaging, 2020).

A short description of series [1]: clinical. The note with it: human, in vivo, iv, SUVmax tumour. Here is the method: (§1) Included patients had no restrictions in food or medication intake. ^68Ga-RGD was administered intravenously using a slow bolus injection of 8 ml over 40 s (200 ± 29 MBq; range 119–218 MBq, 42 ± 8 μg; range 34–58 μg). The net injected dose was calculated by measuring the syringe before and after ^68Ga-RGD administration using a dedicated dose calibrator (VDS-405, Comecer, Joure, The Netherlands). Patients were monitored for (severe) adverse events according to the Common Terminology Criteria for Adverse Events, version 4.03. Venous blood samples at 1, 2, 5, 10, 30 and 90 min after injection were taken for pharmacokinetic and safety analysis. The concentration of ^68Ga-RGD in the blood samples (Bq/ml) was calculated by gamma counter (Wizard Detector Gamma Counter, PerkinElmer Inc., Waltham, MA, USA) while simultaneously measuring 1% standards. Safety analysis included a complete blood count test and assessment of kidney and liver function by measuring the eGFR (MDRD), total bilirubin and aspartate aminotransferase and alanine aminotransferase levels.
(§2) Five patients underwent three static whole-body PET/CT at 30, 60 and 90 min post injection on a Biograph 40 mCT scanner (Siemens Medical Solutions, Knoxville TN, USA) equipped with a dual-slice CT for 4 min of PET data per bed position, with bed positions from the base of the skull to trochanter major. For each PET/CT image, two image reconstructions were used, with a TrueX algorithm with point spread function (PSF) and time of flight (TOF) measurements, using three iterations, 21 subsets, matrix size 256 × 256 (pixel spacing of 3.2 mm) or 200 × 200 (pixel spacing of 4.07 mm), full width at half maximum (FWHM) of 5 mm. Post-processing was performed using a 3D Gaussian filter kernel, 7.5 or 3 mm. The other five patients underwent 60 min dynamic ^68Ga-RGD PET/CT starting at start of injection, of the head and neck region (15 cm FOV), to obtain time–activity curves in malignant lesions. These images were reconstructed in 33 frames ([…], 10 × 5 s, 3 × 10 s, 2 × 15 s, 5 × 30 s, 5 × 120 s, 5 × 300 s and 2 × 600 s). For all patients, a low-dose CT scan was acquired for attenuation correction and anatomical reference, with an automatically modulated X-ray tube voltage and current (100 kV, 30 mA) using Care kV and Care Dose4D (Siemens Healthcare), 512 × 512 voxels; 0.98 pixel spacing; 3 mm slice thickness; 1 pitch. The CT images for anatomical reference were reconstructed with a B31f convolution kernel, slice thickness 5 mm.
(§3) All ^68Ga-RGD PET/CT scans were evaluated by two experienced nuclear medicine physicians (WJGO, EHJGA) on a dedicated workstation (Oasis software, Segami Corporation, Columbia, MD, USA) with a PET/CT viewer for automatic image registration. A volume-of-interest (VOI) around the tumour mass was manually drawn to obtain a maximum standardised uptake value (SUVmax) of the tumour area—drawn on the static PET/CT image acquired 60 min post injection—and to determine the 41% SUVmax isocontour and SUVpeak (highest mean SUV value of 1 cm^3) within this tumour volume. The same analysis was applied on the dynamic imaging series, in which a reconstructed frame of 4 min (56–60 min p.i.) was extracted from the dynamic imaging series to obtain a static image for tumour volume delineation. The dynamic imaging series were also used to obtain time–activity curves using the PMOD Medical Imaging Program version 3.15 (PMOD technologies LLC, Zürich, Switzerland). Curves were estimated for both tumour lesions and background tissue. Tumour delineation was based on the evaluation in Oasis (Oasis software, Segami Corporation, Columbia, MD, USA), drawn on the last frame of the PET series, and subsequently copied to the other frames. For time–activity curves of the muscle, a VOI of 1.5 ml was defined in dorsolateral musculature (contralateral to the tumour) using the CT images and subsequently copied to the dynamic dataset. […]

Series [2] deals with T1, αvβ3 integrin (Homo sapiens, UniProt P05106+P06756).
T1 construct: integrin αvβ3 predominantly expressed in endothelial cells of tumour-associated blood vessels; from tissue; host or cells: tumour lesions and lymph nodes of living patients with oral squamous cell carcinoma (in vivo PET/CT)
Put plainly: clinical. Particulars: in vivo. As to the method: as §1, §2, §3

Series [3] relates to T2, αvβ3 integrin.
T2 construct: integrin αvβ3 predominantly expressed in endothelial cells of tumour-associated blood vessels; from tissue; host or cells: tumour lesions and lymph nodes of living patients with oral squamous cell carcinoma (in vivo PET/CT)
Put plainly: clinical. The note with it: human, in vivo, iv, 200 MBq, total radioactivity. Here is the method: as §1, §2, §3

Details of series [4]: species or system human. The note with it: in vivo. Here is the method:
as §1, with “[…] The biological half-life of ^68Ga-RGD was calculated using bi-exponential regression” for “Safety”, “in MATLAB version R2014b (MathWorks, Natick, MA, USA). The analyses of optimal imaging time point and uptake values were analysed using SPSS Statistics, version 22.0.0.1 (IBM), with” for “included”, “one-way ANOVA followed by a Bonferroni post hoc” for “complete blood count”, “to adjust for multiple comparisons. […]” for “and assessment of kidney and liver function by measuring the eGFR (MDRD), total bilirubin and aspartate aminotransferase and alanine aminotransferase levels.”

Details of series [5]: species or system human. The note with it: in vivo. As to the method:
Five patients underwent three static whole-body PET/CT at 30, 60 and 90 min post injection on a Biograph 40 mCT scanner (Siemens Medical Solutions, Knoxville TN, USA) equipped with a dual-slice CT for 4 min of PET data per bed position, with bed positions from the base of the skull to trochanter major. For each PET/CT image, two image reconstructions were used, with a TrueX algorithm with point spread function (PSF) and time of flight (TOF) measurements, using three iterations, 21 subsets, matrix size 256 × 256 (pixel spacing of 3.2 mm) or 200 × 200 (pixel spacing of 4.07 mm), full width at half maximum (FWHM) of 5 mm. Post-processing was performed using a 3D Gaussian filter kernel, 7.5 or 3 mm. […]
All ^68Ga-RGD PET/CT scans were evaluated by two experienced nuclear medicine physicians (WJGO, EHJGA) on a dedicated workstation (Oasis software, Segami Corporation, Columbia, MD, USA) with a PET/CT viewer for automatic image registration. […]
Numerical data are presented as mean ± standard deviation (SD). […] The biological half-life of ^68Ga-RGD was calculated using bi-exponential regression analysis in MATLAB version R2014b (MathWorks, Natick, MA, USA). The analyses of optimal imaging time point and uptake values were analysed using SPSS Statistics, version 22.0.0.1 (IBM), with a one-way ANOVA followed by a Bonferroni post hoc test to adjust for multiple comparisons. […]
This is another data set of the same source.

Details of series [6]: species or system human. The note with it: in vivo. Here is the method: as §1
The source holds these as a separate data set.

T1 sequence (P06756 31-889 limits assumed): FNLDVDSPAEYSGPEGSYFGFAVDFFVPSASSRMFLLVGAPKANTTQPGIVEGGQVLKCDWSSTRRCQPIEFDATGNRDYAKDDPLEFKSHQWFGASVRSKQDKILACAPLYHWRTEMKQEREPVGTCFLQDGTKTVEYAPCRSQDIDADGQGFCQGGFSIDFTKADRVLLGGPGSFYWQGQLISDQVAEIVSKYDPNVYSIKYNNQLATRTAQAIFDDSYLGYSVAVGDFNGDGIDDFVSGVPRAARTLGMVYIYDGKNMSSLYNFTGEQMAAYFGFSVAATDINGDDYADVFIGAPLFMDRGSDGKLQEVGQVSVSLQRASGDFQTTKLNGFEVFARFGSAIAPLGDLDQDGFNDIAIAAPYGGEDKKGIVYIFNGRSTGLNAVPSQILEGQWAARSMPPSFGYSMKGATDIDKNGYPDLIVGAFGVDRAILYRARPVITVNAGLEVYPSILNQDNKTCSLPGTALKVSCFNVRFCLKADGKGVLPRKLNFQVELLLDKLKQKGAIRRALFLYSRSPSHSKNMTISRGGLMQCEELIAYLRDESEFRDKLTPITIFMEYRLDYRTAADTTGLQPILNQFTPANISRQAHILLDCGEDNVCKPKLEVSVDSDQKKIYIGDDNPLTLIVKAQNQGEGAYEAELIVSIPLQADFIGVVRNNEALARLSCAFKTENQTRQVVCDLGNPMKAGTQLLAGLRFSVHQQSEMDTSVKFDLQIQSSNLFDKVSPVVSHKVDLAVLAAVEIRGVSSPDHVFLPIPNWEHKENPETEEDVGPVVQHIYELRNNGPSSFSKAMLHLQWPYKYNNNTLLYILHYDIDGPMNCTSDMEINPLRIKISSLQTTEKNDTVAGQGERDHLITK
T1 sequence (P06756 891-1048 limits assumed): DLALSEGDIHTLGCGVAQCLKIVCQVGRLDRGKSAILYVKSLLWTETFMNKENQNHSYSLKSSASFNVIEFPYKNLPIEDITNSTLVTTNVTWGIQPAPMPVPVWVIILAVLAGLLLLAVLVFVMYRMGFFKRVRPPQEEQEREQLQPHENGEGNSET
T1 sequence (P05106 27-788): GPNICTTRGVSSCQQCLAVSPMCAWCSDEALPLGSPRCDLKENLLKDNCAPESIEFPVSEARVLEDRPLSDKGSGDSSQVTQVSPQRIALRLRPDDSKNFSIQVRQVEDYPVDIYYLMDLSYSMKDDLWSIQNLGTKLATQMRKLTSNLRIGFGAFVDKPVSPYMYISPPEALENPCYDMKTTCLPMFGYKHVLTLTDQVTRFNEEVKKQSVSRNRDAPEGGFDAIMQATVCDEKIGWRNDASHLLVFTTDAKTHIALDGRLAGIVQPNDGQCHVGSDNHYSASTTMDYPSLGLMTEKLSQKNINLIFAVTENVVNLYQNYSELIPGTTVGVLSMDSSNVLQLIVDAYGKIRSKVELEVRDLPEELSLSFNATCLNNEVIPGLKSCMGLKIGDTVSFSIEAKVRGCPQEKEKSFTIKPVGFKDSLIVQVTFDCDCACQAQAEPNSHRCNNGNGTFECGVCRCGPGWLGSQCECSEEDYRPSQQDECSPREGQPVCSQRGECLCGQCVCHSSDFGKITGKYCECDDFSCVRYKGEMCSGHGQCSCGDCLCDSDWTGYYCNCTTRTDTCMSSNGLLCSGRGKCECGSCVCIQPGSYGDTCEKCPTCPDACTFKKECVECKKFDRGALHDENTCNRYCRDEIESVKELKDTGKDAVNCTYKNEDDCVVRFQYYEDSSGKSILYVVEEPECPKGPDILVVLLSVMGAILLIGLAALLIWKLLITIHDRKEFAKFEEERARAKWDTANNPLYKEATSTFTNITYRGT

Take `N=C(N)NCCC[C@@H]1NC(=O)[C@H](CCCCNC(=O)CC[C@H](NC(=O)CN2CCN(CC(=O)O)CCN(CC(=O)O)CCN(CC(=O)O)CC2)C(=O)NCCCC[C@@H]2NC(=O)[C@@H](Cc3ccccc3)NC(=O)[C@H](CC(=O)O)NC(=O)CNC(=O)[C@H](CCCNC(=N)N)NC2=O)NC(=O)[C@@H](Cc2ccccc2)NC(=O)[C@H](CC(=O)O)NC(=O)CNC1=O` [^68Ga-RGD, [^68Ga]Ga-DOTA-E-[c(RGDfK)]2, metal not drawn]: the SUV at 1 h in series [1] is 6.5 SUV. In series [2], the “SUVmax in lymph nodes with radiotracer uptake, range” value was 1.8-7.6; the “time after injection at which plateau phase was reached in tumour tissue” value is on record as 15 min; the “time after injection at which tracer accumulation in tumour tissue plateaued” value was found to be 10 min; the “tumour-to-muscle tissue ratio (mean)” value was 6.4 ± 0.7. In addition, the SUV in series [3] (mean SUVmax in lymph nodes with radiotracer uptake) was 4.4 ± 2.3 SUV. Besides, in series [3] (mean SUVmax in tumour tissue), the SUV at 0.5 h is 5.7 ± 0.8 SUV, the SUV at 1 h stood at 5.5 ± 1.2 SUV and the SUV at 1.5 h amounted to 4.8 ± 1.2 SUV. Moreover, in series [4], the elimination half-life amounted to 23.0 ± 2.3 min and the “uptake by blood cells (whole blood versus plasma concentration)” value is given as “not taken up by the blood cells”. Besides, the “distribution half-life (t1/2α)” value in series [5] amounted to 0.14 ± 0.07 min. Also, in series [6], the laboratory values result is recorded as “within normal ranges”; the “vital signs and (serious) adverse events” value is reported as “no changes in vital signs nor any (serious) adverse events”.
